The source of these data is patent publication US20210147541A1 (Kyowa Kirin, published 2021).

Residue numbers refer to the chain shown, from its start. Names may count otherwise. Like-named read-outs stand apart in the source and are kept apart here.

The target in test [1] is T1, mouse CADM3 (mouse, UniProt Q99N28 23-396).
T1 construct: Full-length gene expressed transiently on Expi293F cells; also called mouse CADM3/Expi293F cells; Mouse CADM3-expressing cells
T1 sequence: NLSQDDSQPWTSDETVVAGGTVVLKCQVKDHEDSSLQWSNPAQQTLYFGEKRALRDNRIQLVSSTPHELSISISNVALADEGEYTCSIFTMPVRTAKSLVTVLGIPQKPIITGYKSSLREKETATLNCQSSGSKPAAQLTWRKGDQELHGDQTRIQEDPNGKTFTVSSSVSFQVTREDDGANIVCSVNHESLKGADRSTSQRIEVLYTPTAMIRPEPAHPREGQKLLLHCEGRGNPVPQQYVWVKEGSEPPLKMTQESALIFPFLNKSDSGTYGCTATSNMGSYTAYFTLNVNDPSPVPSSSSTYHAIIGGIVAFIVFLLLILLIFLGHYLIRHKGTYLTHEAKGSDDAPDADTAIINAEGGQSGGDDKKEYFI
The test can be described thus: flow cytometry, mouse CADM3/Expi293F vs parent Expi293F cells. On the technique in general: Flow cytometry measures light scatter and fluorescence of single cells or particles in a stream.

The target of test [2] is T1, mouse CADM3. Briefly: flow cytometry, 10 ug/mL, mouse CADM3/Expi293F vs parent Expi293F cells.
For test [3], the target named is T1, mouse CADM3. Described as above. The procedure: (§1) After washing with SB, the cells were suspended in SB, and the fluorescence intensity of each cell was measured using a flow cytometer FACS CANTO II (manufactured by Becton, Dickinson and Company). Note that as a negative control, 10 μg/mL of the anti-AVM antibody was used.
(§2) The detection results were analyzed, and a mean fluorescence intensity (MFI) was calculated using a geometric mean. Further, with respect to the MFI when the concentration of each antibody was 10 μg/mL, the ratio of the MFI (mean fluorescence intensity ratio) between the human CADM3/Expi293F cells and the Expi293F cells (parent cell line) was calculated.
Further, also with respect to AVM IgG4PE(R409K)_iCADM3_3R1-L5 dVHH, AVM IgG4PE(R409K)_iCADM3_3R1-L8 dVHH, AVM IgG4PE(R409K)_iCADM3_3R1-L10 dVHH, and AVM IgG4PE(R409K)_iCADM3_3R1-L11 dVHH, reactivity with the Expi293F cells, the human CADM3/Expi293F cells, and the mouse CADM3/Expi293F cells was analyzed by the same procedure, and the results are shown in Table 5.
The source holds these as a separate data set.

Test [4] concerns the target T1, mouse CADM3. The description is as above. The procedure:
as §1, §2
(§3) With respect to the produced humanized anti-CADM3 VHH-Fc antibodies, reactivity with Expi293F cells, human CADM3/Expi293F cells, and mouse CADM3/Expi293F cells was analyzed by the same procedure as in Example 3.
This is another data set of the same source.

Test [5] deals with T1, mouse CADM3. The test is described as above. The method, then:
as §1, §2, §3
This is another data set of the same source.

The target of test [6] is T2, hCADM3-GST (human).
T2 construct: also called extracellular domain of human CADM3 to which GST was added at the C-terminal side; human CADM3-GST
Briefly: SPR (Biacore T-100), antibody captured, hCADM3-GST as analyte. The procedure: (§4) The affinity of the anti-CADM3 antibodies produced in Example 2 for human CADM3 and mouse CADM3 was measured using Biacore T-100 (GE Healthcare). Each of the antibodies was immobilized on a […] sensor chip using a Human antibody Capture kit, and the binding ability was evaluated using hCADM3-GST and mCADM3-GST produced in Example 4 as analytes.
(§5) With respect to the produced humanized anti-CADM3 antibodies, affinity for CADM3 by surface plasmon resonance detection was evaluated by the same procedure as in Example 6.
A general note: Surface plasmon resonance follows binding to a sensor surface in real time, without labels.

For test [7], the target named is T3, mCADM3-GST (mouse).
T3 construct: also called extracellular domain of mouse CADM3 to which GST was added at the C-terminal side; mouse CADM3-GST
The test can be described thus: SPR (Biacore T-100), antibody captured, mCADM3-GST as analyte. The procedure: as §4, §5

The target in another test is T4, human CADM3 (human, UniProt Q8N126 25-398).
T4 construct: Full-length gene expressed transiently on Expi293F cells; also called cell adhesion molecule 3; human CADM3/Expi293F cells
T4 sequence: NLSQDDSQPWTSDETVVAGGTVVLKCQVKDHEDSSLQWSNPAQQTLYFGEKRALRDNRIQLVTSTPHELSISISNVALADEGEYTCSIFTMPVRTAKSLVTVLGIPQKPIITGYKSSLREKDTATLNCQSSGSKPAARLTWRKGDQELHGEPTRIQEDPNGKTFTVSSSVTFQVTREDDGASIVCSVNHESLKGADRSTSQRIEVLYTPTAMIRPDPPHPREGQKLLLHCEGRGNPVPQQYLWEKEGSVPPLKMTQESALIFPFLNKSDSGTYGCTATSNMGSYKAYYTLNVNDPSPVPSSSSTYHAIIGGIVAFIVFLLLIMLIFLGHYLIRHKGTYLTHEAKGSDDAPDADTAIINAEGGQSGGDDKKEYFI
The test can be described thus: flow cytometry, 10 ug/mL, human CADM3/Expi293F vs parent Expi293F cells. The method, then:
as §1, §2, §3

Test [8] has as its target T2, hCADM3-GST. Briefly: phage ELISA, hCADM3-GST immobilized. The procedure:
(§6) In the ELISA, hCADM3-GST and mCADM3-GST were immobilized (50 ng/50 μL) on MAXISORP (manufactured by NUNC, Inc.), followed by blocking using 0.5% BSA. To each well, each phage clone was added and allowed to react at room temperature for 1 hour, and thereafter, each well was washed 5 times with PBS-T. Subsequently, a biotinylated anti-M13 phage antibody (manufactured by Abcam plc) and horseradish peroxidase-labeled streptavidin (manufactured by Vector Co., Ltd.) were added to each well in an amount of 50 μL, followed by incubation at room temperature for 1 hour.
(§7) After the microplate was washed with PBS-T, a 3,3′,5,5′-tetramethylbenzidine (TMB) chromogenic substrate solution (manufactured by Calbiochem, Inc.) was added to each well, followed by incubation at room temperature. The coloring reaction was stopped by adding a 1 mol/L hydrochloric acid to each well, and an absorbance at a wavelength of 450 nm (reference wavelength: 570 nm) was measured using a microplate reader.
(In general: In an ELISA, binding on a coated surface is turned into a signal by an enzyme label.)

Test [9] has as its target T3, mCADM3-GST. Briefly: phage ELISA, mCADM3-GST immobilized. The method, then: as §6, §7

B1: anti-AVM antibody (antibody, V domains shown)
VH: EVQLVESGGGLVQPGRSLKLSCAASGFTFSNYAMAWVRRAPTKGLEWVASISNGGGNTYYRDSVKGRFTISRDDAKNTLYLQMDSLRSEDTATYYCARHGNYIYYGSFFDYWGQGVMVTVSS
VL: QFVLSQPNSVSTNLGSTVKLSCKRSTGNIGSNYVSWYQQHEGRSPTTMIYRDDKRPDGVPDRFSGSIDRSSDSALLTINNVQTEDEADYFCQSYSSGINIFGGGTKLTVLG
notes: Negative control; also called chimeric anti-Avermectin (AVM) antibody; anti-AVM-IgG4 antibody
On to B1, for which the binding result with mouse CADM3 [1] is “no binding (tested: 10 ug/mL)”. Moreover, the “Mean fluorescence intensity ratio” value with mouse CADM3 [2] is 1.07; in the test with mouse CADM3 [3], 1.15; with mouse CADM3 [4], 1.02; with mouse CADM3 [5], 1.02.

B2: AVM IgG4PE(R409K)_iCADM3_3R1-L11 dVHH (bispecific antibody)
heavy: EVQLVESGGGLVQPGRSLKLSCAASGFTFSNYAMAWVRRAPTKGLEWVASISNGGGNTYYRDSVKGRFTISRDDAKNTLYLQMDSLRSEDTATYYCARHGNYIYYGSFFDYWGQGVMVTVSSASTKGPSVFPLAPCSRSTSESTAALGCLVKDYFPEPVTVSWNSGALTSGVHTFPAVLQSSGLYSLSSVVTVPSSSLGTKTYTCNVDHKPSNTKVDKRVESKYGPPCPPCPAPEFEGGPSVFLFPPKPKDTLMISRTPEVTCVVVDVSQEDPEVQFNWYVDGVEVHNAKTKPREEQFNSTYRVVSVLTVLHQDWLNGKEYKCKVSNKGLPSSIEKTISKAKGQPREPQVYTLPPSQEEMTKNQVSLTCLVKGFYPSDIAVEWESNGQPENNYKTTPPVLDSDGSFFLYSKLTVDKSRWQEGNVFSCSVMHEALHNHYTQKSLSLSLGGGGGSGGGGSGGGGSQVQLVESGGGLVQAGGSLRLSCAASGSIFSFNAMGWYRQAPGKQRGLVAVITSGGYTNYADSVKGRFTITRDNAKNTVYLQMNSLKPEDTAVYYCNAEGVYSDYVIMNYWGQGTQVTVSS
light: QFVLSQPNSVSTNLGSTVKLSCKRSTGNIGSNYVSWYQQHEGRSPTTMIYRDDKRPDGVPDRFSGSIDRSSDSALLTINNVQTEDEADYFCQSYSSGINIFGGGTKLTVLGQPKAAPSVTLFPPSSEELQANKATLVCLISDFYPGAVTVAWKADSSPVKAGVETTTPSKQSNNKYAASSYLSLTPEQWKSHRSYSCQVTHEGSTVEKTVAPTECS
notes: also called anti-AVM-IgG4-CADM3 VHH bispecific antibody
Regarding B2, in the test with mouse CADM3 [3], the “Mean fluorescence intensity ratio” value was 4.66.

B3: iCADM3_3R1-L8_04 VHH-hG4PE(R409K) (Fc fusion)
chain: QVQLVESGGGLVQPGGSLRLSCAASGRTFSNYARGWFRQAPGKEREFVAAIDYSGGSTNYADSAKGRFTISRDNSKNTVYLQMNSLRAEDTAVYYCAAPASRRPSWDADGYDYWGQGTLVTVSS
notes: also called iCADM3-3R1-L8_04 humanized antibody; not shown: Hinge-CH2-CH3 region of the human IgG4 heavy chain constant region (IgG4 variant)
By Kd is commonly meant the concentration at which binding is half-saturated. Low values mean tighter binding, high ones weaker binding. In general, koff refers to the rate constant with which the complex falls apart. A lower koff goes with slow dissociation. What is called kon is the second-order rate constant of association. A high value points to faster complex formation. In the test with hCADM3-GST [6], B3 showed a Kd of 5.34 nM, a koff of 0.00078 s⁻¹ and a kon of 150000 M⁻¹ s⁻¹. In the test with mCADM3-GST [7], this molecule gave a Kd of 5.22 nM, a koff of 0.00064 s⁻¹ and a kon of 120000 M⁻¹ s⁻¹. Further, in the test with human CADM3, the “Mean fluorescence intensity ratio” value was determined as 6.2. In addition, the “Mean fluorescence intensity ratio” value with mouse CADM3 [4] came to 9.62.

B4: iCADM3_3R1-L8_02 VHH-hG4PE(R409K) (Fc fusion)
chain: B3 chain with E6Q, V79L
notes: also called iCADM3-3R1-L8_02 humanized antibody; not shown: Hinge-CH2-CH3 region of the human IgG4 heavy chain constant region (IgG4 variant)
Regarding B4, the figures for the “Mean fluorescence intensity ratio” value with human CADM3 and with mouse CADM3 [4] were 2.8 and 4.83, respectively.

B5: iCADM3_3R1-L8_01 VHH-hG4PE(R409K) (Fc fusion)
chain: B3 chain with E6Q, E44G, V79L
notes: also called iCADM3-3R1-L8_01 humanized antibody; not shown: Hinge-CH2-CH3 region of the human IgG4 heavy chain constant region (IgG4 variant)
As for B5, the “Mean fluorescence intensity ratio” value was found to be 2.21 with human CADM3 and 3.71 in the test with mouse CADM3 [4].

B6: iCADM3_3R1-L8_03 VHH-hG4PE(R409K) (Fc fusion)
chain: B3 chain with E44G
notes: also called iCADM3-3R1-L8_03 humanized antibody; not shown: Hinge-CH2-CH3 region of the human IgG4 heavy chain constant region (IgG4 variant)
In the test with hCADM3-GST [6], B6 showed a Kd of 10.3 nM, a koff of 0.0019 s⁻¹ and a kon of 190000 M⁻¹ s⁻¹. Also, in the test with mCADM3-GST [7], the Kd was 7.38 nM, the dissociation rate constant (koff) was determined as 0.0011 s⁻¹ and the kon was determined as 150000 M⁻¹ s⁻¹. Besides, the “Mean fluorescence intensity ratio” value with human CADM3 came out at 5.65. Moreover, in the test with mouse CADM3 [4], the “Mean fluorescence intensity ratio” value was 8.54.

B7: iCADM3_3R1-L5 (VHH)
VHH: QVQLVESGGGLVQAGGSLRLSCAASGSIVSVNAMGWYRQAPGKQRELVATITSGGSTNYADSAKGRFTISRDNAKNTMYLQMNSLKPEDTAVYYCNGEFWSRRDTRPPGVVNYWGQGTQVTVSS
notes: also called iCADM3-3R1-L5 antibody; anti-CADM3 VHH antibody (phage clone)
As to B7, the binding result with hCADM3-GST [8] and with mCADM3-GST [9] was “binds” in each case.

B8: iCADM3_3R1-L10 (VHH)
VHH: QVQLVESGGGLVQAGGSLRLSCAASGSIFSIHAMGWYRQAPGKQRELVATVTSGGSTNYADSVKGRFTISRDNAKNTVYLQMNSLKPEDTAVYYCNAETPYYSSTYYTNYWGQGTQVTVSS
notes: also called iCADM3-3R1-L10 antibody; anti-CADM3 VHH antibody (phage clone)
B8: the binding result with hCADM3-GST [8] and with mCADM3-GST [9] was “binds” throughout.

B9: iCADM3_3R1-L11 (VHH)
VHH: QVQLVESGGGLVQAGGSLRLSCAASGSIFSFNAMGWYRQAPGKQRGLVAVITSGGYTNYADSVKGRFTITRDNAKNTVYLQMNSLKPEDTAVYYCNAEGVYSDYVIMNYWGQGTQVTVSS
notes: also called iCADM3-3R1-L11 antibody; anti-CADM3 VHH antibody (phage clone)
As to B9, the binding result with hCADM3-GST [8] and with mCADM3-GST [9] was “binds” throughout.
